Like-named read-outs stand apart in the source and are kept apart here.
Columns and labels:
[1] = target: T1, GST-TRF2 (human, UniProt Q15554 1-542); assay: ELISA
[2] = target: T1, GST-TRF2; assay: ELISA; remark: listed apart in the source

T1 sequence (Q15554 whole entry): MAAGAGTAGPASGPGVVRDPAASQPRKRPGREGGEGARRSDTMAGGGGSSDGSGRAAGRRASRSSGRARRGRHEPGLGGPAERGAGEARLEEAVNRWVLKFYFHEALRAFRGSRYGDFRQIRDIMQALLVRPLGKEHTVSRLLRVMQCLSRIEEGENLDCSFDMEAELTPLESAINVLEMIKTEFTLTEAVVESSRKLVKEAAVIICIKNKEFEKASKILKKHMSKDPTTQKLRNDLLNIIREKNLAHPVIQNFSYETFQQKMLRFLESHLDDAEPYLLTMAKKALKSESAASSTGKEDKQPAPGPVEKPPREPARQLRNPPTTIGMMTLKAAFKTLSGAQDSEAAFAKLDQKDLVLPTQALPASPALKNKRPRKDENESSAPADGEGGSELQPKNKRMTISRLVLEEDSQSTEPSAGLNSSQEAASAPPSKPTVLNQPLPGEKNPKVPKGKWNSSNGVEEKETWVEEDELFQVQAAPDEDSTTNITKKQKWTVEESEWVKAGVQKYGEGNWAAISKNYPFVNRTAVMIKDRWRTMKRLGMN

Row | Binder | binding result [1] | binding result [2]
1 | UUACCGUUACCGUUACCGUUACCG (ssRNA) [TERRA-mut] | no binding | –
2 | AGGGGGCCGUGGGGUGGGAGCUGGGG (structured_RNA) [BCL2 RNA G-quadruplex] | – | binds
3 | AGGGAGGGGCGGGUCUGGG (structured_RNA) [NRAS RNA G-quadruplex] | – | binds

From publication PMC3528108
